Measured values: paper PMC12583548 (Nature Communications, 2025)
Several values for one entry are separate records, joined by “and”; a condition that tells them apart may be missing. Equal entries are not always repeated.

Columns and labels:
[1] = biological target: T1, neonatal Fc receptor (FcRn), recombinant human ectodomain heterodimer of FcRn α-chain and β2 microglobulin, … (human, UniProt P55899;P61769, biotin on the AviTag (where FcRn was loaded on streptavidin biosensors)); assay: BLI; HAstV1 spike loaded, FcRn mutants in solution at 500, 250, 125, 62.5 and 31.25 nM; pH 7.0; 1:1 model; settings: both partners purified
T1 construct: also called human FcRn; wild-type FcRn; source: CHO-S, electroporated, purified from the medium (StrepTrap XT); not shown: AviTag, C-terminal, kept

[2] = biological target: T2, human FcRn mutant D153E (ectodomain heterodimer with β2M) (human, UniProt P55899 24-297; P61769 21-119, D153E); assay: as above; settings: both partners purified
T2 construct: signal peptide in the construct; ectodomain of the FcRn α-chain (FCGRT gene), Met1-Ser297 of UniProt P55899; β-2-microglobulin, Met1-Met119 of UniProt P61769; source: CHO-S, electroporated, purified from the medium (StrepTrap XT)

[3] = biological target: T3, human FcRn mutant T149N_G151T (ectodomain heterodimer with β2M) (human, UniProt P55899 24-297; P61769 21-119, T149N | G151T); assay: as above; settings: both partners purified
T3 construct: signal peptide in the construct; ectodomain of the FcRn α-chain (FCGRT gene), Met1-Ser297 of UniProt P55899; β-2-microglobulin, Met1-Met119 of UniProt P61769; The change brings in the N-linked glycosylation site of mouse FcRn; source: CHO-S, electroporated, purified from the medium (StrepTrap XT)

[4] = biological target: T1, neonatal Fc receptor (FcRn), …; assay: BLI; HIS1K biosensors loaded with 10x histidine-tagged spike, FcRn in solution at 1000, 500, 250, 125 and 62.5 nM; pH 7.0 buffer, 25 °C; 1:1 model; settings: both partners purified
[5] = biological target: T4, neonatal Fc receptor (FcRn), recombinant ectodomain heterodimer of FcRn α-chain and β2 microglobulin (human, UniProt P55899 24-297; P61769 21-119); assay: BLI; streptavidin biosensors loaded with Avitag-biotinylated HAstV1 spike K467H, dipped into FcRn; pH 5.0 (0.1 M sodium acetate, 150 mM NaCl, 0.05% Tween-20); 25 °C; 1:1 binding model; triplicate; settings: both partners purified
T4 construct: signal peptide in the construct; ectodomain of the wild-type FCGRT gene (FcRn α-chain), human, UniProt P55899, Met1-Ser297; followed by a C-terminal thrombin cleavage site before the tags; β-2-microglobulin (β2M), human, UniProt P61769, Met1-Met119; Tags were removed with thrombin only for crystallization; nothing is said of their removal for BLI; also called human FcRn; wild-type FcRn; source: …

[6] = biological target: T4, neonatal Fc receptor (FcRn), …; assay: BLI; streptavidin biosensors loaded with Avitag-biotinylated HAstV1 spike K467H (3 ug/mL), dipped into FcRn (2000 nM in the shown replicate); pH 7.0 (0.1 M sodium phosphate, 150 mM NaCl, 0.05% Tween-20); 25 °C; 1:1 binding model; triplicate; settings: both partners purified
[7] = biological target: the molecule itself; assay: crystal structure; FcRn-HAstV1 spike complex, tags removed, 3.4 Å; hanging drop, 0.1 M NaCl, 0.1 M Bis-Tris:HCl pH 6.1, 1 M ammonium sulfate
[8] = biological target: T1, neonatal Fc receptor (FcRn), …; assay: BLI; streptavidin biosensors loaded with Avitag-biotinylated spike, FcRn in solution (500-62.5 nM for the wild type); pH 5.0 (0.1 M sodium acetate, 150 mM NaCl, 0.05% Tween-20), 25 °C; 1:1 model; settings: both partners purified
[9] = biological target: T1, neonatal Fc receptor (FcRn), …; assay: BLI; streptavidin biosensors loaded with Avitag-biotinylated spike, FcRn in solution (500-62.5 nM for the wild type); pH 7.0 (0.1 M sodium phosphate, 150 mM NaCl, 0.05% Tween-20), 25 °C; 1:1 model; settings: both partners purified
[10] = biological target: HAstV1 capsid spike domain, Avitag-biotinylated (human astrovirus 1 (HAstV1), UniProt O12792 433-645, biotin on the Avitag); assay: BLI; biosensors loaded with biotinylated HAstV1 spike (streptavidin, as in Fig. 1a); human or mouse FcRn in solution, 500, 250, 125, 62.5 nM; pH 7.0 (0.1 M sodium phosphate, 150 mM NaCl, 0.05% Tween-20), 25 °C; 1:1 model; average of three replicates; settings: both partners purified

B1: HAstV1 capsid spike domain, 10x histidine-tagged (domain or fragment)
chain: KVVLTFGAPMSPNANNKQTWVNKPLDAPSGHYNVKIAKDVDHYLTMQGFTSIASVDWYTIDFQPSEAPAPIQGLQVLVNISKKADVYAIKQFVTAQTNNKHQVTSLFLVKVTTGFQVNNYLSYFYRASATGDATTNLLVRGDTYTAGISFTQGGWYLLTNTSIVDGAMPPGWVWNNVELKTNTAYHMDKGLVHLIMPLPESTQMCYEMLTSIP
notes: capsid spike domain of the HAstV1 capsid protein (ORF2), UniProt O12792; also called HAstV1 spike; WT; source: E. coli T7Express, purified (HisPur cobalt resin); not shown: His10, C-terminal, kept
[1]
  Kd: 230 nM
[2]
  Kd: 1600 nM
[3]
  Kd: 500 nM
[4]
  Kd: 270 nM
  koff: 0.014 s⁻¹
  kon: 52000 M⁻¹ s⁻¹

B2: HAstV1 capsid spike mutant K467H, Avitag-biotinylated (domain or fragment)
chain: KVVLTFGAPMSPNANNKQTWVNKPLDAPSGHYNVHIAKDVDHYLTMQGFTSIASVDWYTIDFQPSEAPAPIQGLQVLVNSSKKADVYAIKQFVTAQTNNKHQVTSLFLVKVTTGFQVNNYLSYFYRASATGDATTNLLVRGDTYTAGISFTQGGWYLLTNTSIVDGAMPPGWVWNNVELKTNTAYHMDKGLVHLIMPLPESTQMCYEMLTSIP
modifications: biotin on the Avitag
notes: also called HAstV1_K467H spike; HAstV1 spike K467H; source: T7Express E. coli, purified (HisPur cobalt resin); not shown: Avitag, C-terminal, kept
[5]
  Kd: 447 nM and 869 nM and 1040 nM
  koff: 0.033 s⁻¹ and 0.0561 s⁻¹ and 0.0625 s⁻¹
  kon: 73900 M⁻¹ s⁻¹ and 64500 M⁻¹ s⁻¹ and 60200 M⁻¹ s⁻¹
[6]
  Kd: 19200 nM and 21500 nM and 26800 nM
  koff: 0.239 s⁻¹ and 0.259 s⁻¹ and 0.236 s⁻¹
  kon: 12500 M⁻¹ s⁻¹ and 12000 M⁻¹ s⁻¹ and 8800 M⁻¹ s⁻¹

B3: HAstV1 capsid spike domain, tag removed with thrombin (domain or fragment)
chain: KVVLTFGAPMSPNANNKQTWVNKPLDAPSGHYNVKIAKDVDHYLTMQGFTSIASVDWYTIDFQPSEAPAPIQGLQVLVNISKKADVYAIKQFVTAQTNNKHQVTSLFLVKVTTGFQVNNYLSYFYRASATGDATTNLLVRGDTYTAGISFTQGGWYLLTNTSIVDGAMPPGWVWNNVELKTNTAYHMDKGLVHLIMPLPESTQMCYEMLTSIP
notes: capsid spike domain of the HAstV1 capsid protein (ORF2), UniProt O12792; Form used for the SEC complex and the crystal; also called HAstV1 spike; source: E. coli T7Express, purified (HisPur cobalt resin), tag removed with thrombin, SEC; not shown: His10, C-terminal, cleaved
[7]
  stoichiometry N: 2

B4: HAstV8 capsid spike domain, 10x histidine-tagged (domain or fragment)
chain: GEQFRVLLTVGPPMAPNTANSQNWVNKTIVPPENQYTVKIGIDLEHYTTMQGFTPVESVSWYTADFQPSDEPSPIPGLYARVNNTKKADVYGVQQFKSSHTNNRHQITSVFLVRVTTSFQVINYTSYFIRGAESGSNVSNLKIRDQTYHTPLQFTQGKWYLLTSTVMHDGPTSSGWVWMNQELTNNIAYRVDPGMMYLITPPPAASQLYFELHTVLPQA
notes: capsid spike domain of the HAstV8 capsid protein (ORF2); also called HAstV8 spike; source: E. coli T7Express, purified (HisPur cobalt resin); not shown: His10, C-terminal, kept
[4]
  Kd: 390 nM
  koff: 0.03 s⁻¹
  kon: 76000 M⁻¹ s⁻¹

B5: HAstV1 capsid spike domain, Avitag-biotinylated (domain or fragment)
chain: KVVLTFGAPMSPNANNKQTWVNKPLDAPSGHYNVKIAKDVDHYLTMQGFTSIASVDWYTIDFQPSEAPAPIQGLQVLVNISKKADVYAIKQFVTAQTNNKHQVTSLFLVKVTTGFQVNNYLSYFYRASATGDATTNLLVRGDTYTAGISFTQGGWYLLTNTSIVDGAMPPGWVWNNVELKTNTAYHMDKGLVHLIMPLPESTQMCYEMLTSIP
modifications: biotin on the Avitag
notes: capsid spike domain of the HAstV1 capsid protein (ORF2), UniProt O12792; it may carry a further tag for the cobalt resin; also called biotinylated HAstV1 spike; Avitag-biotinylated HAstV1 spike; source: E. coli T7Express, purified (HisPur cobalt resin)
[8]
  Kd: 102 nM
[9]
  Kd: 188 nM

B6: recombinant mouse FcRn (receptor)
chain 1: SETRPPLMYHLTAVSNPSTGLPSFWATGWLGPQQYLTYNSLRQEADPCGAWMWENQVSWYWEKETTDLKSKEQLFLEALKTLEKILNGTYTLQGLLGCELASDNSSVPTAVFALNGEEFMKFNPRIGNWTGEWPETEIVANLWMKQPDAARKESEFLLNSCPERLLGHLERGRRNLEWKEPPSMRLKARPGNSGSSVLTCAAFSFYPPELKFRFLRNGLASGSGNCSTGPNGDGSFHAWSLLEVKRGDEHHYQCQVEHEGLAQPLTVDLDSSARSS
chain 2: IQKTPQIQVYSRHPPENGKPNILNCYVTQFHPPHIEIQMLKNGKKIPKVEMSDMSFSKDWSFYILAHTEFTPTETDTYACRVKHASMAEPKTVYWDRDM
[10]
  Kd: 58 nM
  koff: 0.003 s⁻¹
  kon: 52000 M⁻¹ s⁻¹
